Test results as given in publication PMC9122904, “Insights into the client protein release mechanism of the ATP-independent chaperone Spy” (Nature Communications, 2022).

Experiments:
Assay in all cases: BLI; Octet RED96; client biotinylated and loaded on streptavidin sensors; Spy or Spy variant in solution at 0.25, 0.5, 1, 1.5 and 2 μM; 40 mM HEPES, 150 mM NaCl, pH 7.5; Kd calculated as koff/kon
Conditions in all cases: both partners purified
[1] = target: T1, Spy_(29-130) (UniProt P77754 52-153)
T1 construct: Spy chaperone, residues 29-130; source: E. coli BL21 (DE3), purified (Ni-NTA, cation exchange, SEC); not shown: His6, N-terminal, cleaved; SUMO, N-terminal, cleaved
T1 sequence (looked up): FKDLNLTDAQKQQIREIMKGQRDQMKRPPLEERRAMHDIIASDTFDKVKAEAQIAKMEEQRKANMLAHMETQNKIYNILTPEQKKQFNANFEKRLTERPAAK
In short: (§1)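 Association was recorded with an Octet RED96 as streptavidin sensors carrying client proteins, biotinylated with EZ-link NHS-biotin at a 1:1 molar ratio, sat in 40 mM HEPES, 150 mM NaCl, pH 7.5 with 0.25 to 2 μM of the analyte protein (0.25, 0.5, 1, 1.5 and 2 μM). Dissociation followed after transfer to analyte-free buffer. Both wavelength-shift phases were fitted in SigmaPlot 12.0 to obtain koff and the observed association rate, whose dependence on analyte concentration yielded kon, with Kd defined as koff divided by kon.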

[2] = target: T2, Spy_(24-127) (UniProt P77754 47-150)
T2 construct: Spy chaperone, residues 24-127; source: E. coli BL21 (DE3), purified (Ni-NTA, cation exchange, SEC); not shown: His6, N-terminal, cleaved; SUMO, N-terminal, cleaved
T2 sequence (looked up): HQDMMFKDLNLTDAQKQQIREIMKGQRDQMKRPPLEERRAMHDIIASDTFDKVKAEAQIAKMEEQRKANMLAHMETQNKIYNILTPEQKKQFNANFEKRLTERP
In short: as §1

[3] = target: T3, Spy wild type (Spy_(1-138)) (UniProt P77754 24-161)
T3 construct: Spy, ATP-independent periplasmic chaperone; also called WT; wt; source: E. coli BL21 (DE3), purified (Ni-NTA, cation exchange, SEC); not shown: His6, N-terminal, cleaved; SUMO, N-terminal, cleaved
T3 sequence (looked up): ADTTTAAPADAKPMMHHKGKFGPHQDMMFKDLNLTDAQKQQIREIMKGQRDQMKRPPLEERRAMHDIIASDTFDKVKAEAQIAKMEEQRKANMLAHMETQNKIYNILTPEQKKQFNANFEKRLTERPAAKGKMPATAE
In short: as §1

[4] = target: T4, Spy_(21-124) (UniProt P77754 44-147)
T4 construct: source: E. coli BL21 (DE3), purified (Ni-NTA, cation exchange, SEC); not shown: His6, N-terminal, cleaved; SUMO, N-terminal, cleaved
T4 sequence (looked up): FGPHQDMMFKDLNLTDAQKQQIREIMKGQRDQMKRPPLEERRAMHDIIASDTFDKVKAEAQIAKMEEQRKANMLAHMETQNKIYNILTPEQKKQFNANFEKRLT
In short: as §1

[5] = target: T5, Spy_(21-130) (UniProt P77754 44-153)
T5 construct: Spy chaperone, residues 21-130; source: E. coli BL21 (DE3), purified (Ni-NTA, cation exchange, SEC); not shown: His6, N-terminal, cleaved; SUMO, N-terminal, cleaved
T5 sequence (looked up): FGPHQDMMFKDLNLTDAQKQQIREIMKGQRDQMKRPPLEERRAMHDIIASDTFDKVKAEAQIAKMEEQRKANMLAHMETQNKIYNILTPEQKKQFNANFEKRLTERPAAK
In short: as §1

[6] = target: T6, Spy_(27-127) (UniProt P77754 50-150)
T6 construct: Spy chaperone, residues 27-127; source: E. coli BL21 (DE3), purified (Ni-NTA, cation exchange, SEC); not shown: His6, N-terminal, cleaved; SUMO, N-terminal, cleaved
T6 sequence (looked up): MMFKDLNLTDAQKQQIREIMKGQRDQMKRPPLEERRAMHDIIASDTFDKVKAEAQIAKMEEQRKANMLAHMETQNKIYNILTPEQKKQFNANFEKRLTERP
In short: as §1

[7] = target: T7, Spy_(29-138) (UniProt P77754 52-161)
T7 construct: source: E. coli BL21 (DE3), purified (Ni-NTA, cation exchange, SEC); not shown: His6, N-terminal, cleaved; SUMO, N-terminal, cleaved
T7 sequence (looked up): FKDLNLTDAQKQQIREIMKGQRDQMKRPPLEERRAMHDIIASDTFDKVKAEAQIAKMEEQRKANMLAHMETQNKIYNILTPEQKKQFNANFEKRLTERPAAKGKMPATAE
In short: as §1

[8] = target: T8, Spy_(29-124) (UniProt P77754 52-147)
T8 construct: also called termini-free Spy; source: E. coli BL21 (DE3), purified (Ni-NTA, cation exchange, SEC); not shown: His6, N-terminal, cleaved; SUMO, N-terminal, cleaved
T8 sequence (looked up): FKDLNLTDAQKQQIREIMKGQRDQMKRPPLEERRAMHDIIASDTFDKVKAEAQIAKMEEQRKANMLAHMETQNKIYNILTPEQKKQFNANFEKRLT
In short: as §1

B1: Im7 H40W L53A I54A (natural protein)
chain: MELKNSISDYTEAEFVQLLKEIEKENVAATDDVLDVLLEWFVKITEHPDGTDAAYYPSDNRDDSPEGIVKEIKEWRAANGKPGFKQG
modifications: biotin (EZ-link NHS-biotin, 1:1 molar ratio of biotin to protein)
notes: Im7 (colicin E7 immunity protein) with H40W L53A I54A; Spy was made with an N-terminal His6-SUMO tag that was cleaved; also called Im7AAW; partially folded client; source: purified by a similar procedure to Spy
koff [1]: 0.0937 s⁻¹ | koff [2]: 0.39 s⁻¹ | koff [3]: 0.179 s⁻¹ | koff [4]: 0.487 s⁻¹ | koff [5]: 0.461 s⁻¹ | koff [6]: 0.0933 s⁻¹ | koff [7]: 0.0893 s⁻¹ | koff [8]: 0.089 s⁻¹
